US20040253629A1 (Stanford University, published 2004)

B2: Bok-L (Bcl-2-related ovarian killer, long form, rat) (other)
chain: MEVLRRSSVFAAEIMDAFDRSPTDKELVAQAKALGREYVHARLLRAGLSWSAPERASPAPGGRLAEVCTVLLRLGDELEQIRPSVYRNVARQLHIPLQSEPVVTDAFLAVAGHIFSAGITWGKVVSLYSVAAGLAVDCVRQAQPAMVHALVDCLGEFVRKTLATWLRRRGGWTDVLKCVVSTDPGFRSHWLVATLCSFGRFLKAAFFLLLPER
notes: also called full-length Bok protein
B5: BHRF1 (other)
chain: MAYSTREILLALCIRDSRVHGNGTLHPVLELAARETPLRLSPEDTVVLRYHVLLEEIIERNSETFTETWNRFITHTEHVDLDFNSVFLEIFHRGDPSLGRALAWMAWCMHACRTLCCNQSTPYYVVDLSVRGMLEASEGLDGWIHQQGGWSTLIEDNIPGSRRFSWTLFLAGLTLSLLVICSYLFISRGRH

Legend:
[1] = biological target: T1, Mcl-1 (rat) (rat, UniProt Q9Z1P3 1-330); experiment: yeast two-hybrid, Bok-S-GAL4-AD vs GAL4-BD fusion
[2] = biological target: B5; experiment: yeast two-hybrid, Bok-S-GAL4-AD vs GAL4-BD fusion
[3] = biological target: T1, Mcl-1 (rat); experiment: yeast two-hybrid, yeast cell growth grade (++ prominent, + moderate)
[4] = biological target: T1, Mcl-1 (rat); experiment: yeast two-hybrid, mutant Bok-L-GAL4-AD vs GAL4-BD fusion
[5] = biological target: B2; experiment: yeast two-hybrid, yeast cell growth grade (++ prominent, + moderate)

T1 sequence (Q9Z1P3 whole entry, the tested form may be a part): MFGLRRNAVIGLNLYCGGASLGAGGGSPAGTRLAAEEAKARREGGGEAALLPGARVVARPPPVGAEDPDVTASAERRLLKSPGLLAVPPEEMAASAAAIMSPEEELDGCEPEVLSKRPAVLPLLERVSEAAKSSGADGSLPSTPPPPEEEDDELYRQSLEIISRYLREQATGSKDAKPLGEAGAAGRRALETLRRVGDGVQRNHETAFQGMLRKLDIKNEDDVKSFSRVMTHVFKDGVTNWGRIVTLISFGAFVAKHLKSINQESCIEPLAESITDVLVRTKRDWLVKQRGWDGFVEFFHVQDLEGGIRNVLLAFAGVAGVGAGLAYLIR

B1: Bok-S (short splicing variant of Bok, rat) (other)
chain: MEVLRRSSVFAAEIMDAFDRSPTDKELVAQAKALGREYVHARLLRAGLSWSAPERASPAPGGRLAEVCTVLLRLGITWGKVVSLYSVAAGLAVDCVRQAQPAMVHALVDCLGEFVRKTLATWLRRRGGWTDVLKCVVSTDPGFRSHWLVATLCSFGRFLKAAFFLLLPER
notes: also called truncated Bok
B1: no binding [1]; no binding [2].

B2: binds [3].

B3: BokGGGG (Bok-L 71 LLRL 74 to 71 GGGG 74) (other)
chain: MEVLRRSSVFAAEIMDAFDRSPTDKELVAQAKALGREYVHARLLRAGLSWSAPERASPAPGGRLAEVCTVGGGGGDELEQIRPSVYRNVARQLHIPLQSEPVVTDAFLAVAGHIFSAGITWGKVVSLYSVAAGLAVDCVRQAQPAMVHALVDCLGEFVRKTLATWLRRRGGWTDVLKCVVSTDPGFRSHWLVATLCSFGRFLKAAFFLLLPER
notes: also called BokGGGG mutant
B3: no binding [4].

B4: BokAAA (Bok-L 75 AAA 77) (other)
chain: MEVLRRSSVFAAEIMDAFDRSPTDKELVAQAKALGREYVHARLLRAGLSWSAPERASPAPGGRLAEVCTVLLRLAAALEQIRPSVYRNVARQLHIPLQSEPVVTDAFLAVAGHIFSAGITWGKVVSLYSVAAGLAVDCVRQAQPAMVHALVDCLGEFVRKTLATWLRRRGGWTDVLKCVVSTDPGFRSHWLVATLCSFGRFLKAAFFLLLPER
notes: also called BokAAA: 75 AAA 77
B4: no binding [4].

B5: binds [5].

B6: BokADE (Bok-L G75A) (other)
chain: MEVLRRSSVFAAEIMDAFDRSPTDKELVAQAKALGREYVHARLLRAGLSWSAPERASPAPGGRLAEVCTVLLRLADELEQIRPSVYRNVARQLHIPLQSEPVVTDAFLAVAGHIFSAGITWGKVVSLYSVAAGLAVDCVRQAQPAMVHALVDCLGEFVRKTLATWLRRRGGWTDVLKCVVSTDPGFRSHWLVATLCSFGRFLKAAFFLLLPER
notes: also called BokADE: G 75 A
B6: no binding [4].
